Reference: patent US20210277441A1, “METHOD OF SELECTING A POLYPEPTIDE OF INTEREST” (IMPERIAL COLLEGE INNOVATIONS LIMITED, priority 2018, published 2021)
Substitutions are numbered along the chain they refer to. Numbers in names are those of the source.

What was measured:
[1] = Kinetics of evolved and parental enzymes, 2-methylpyrroline as variable substrate; type: biochemical; conditions: reductase activity towards 2-methylpyrroline
[2] = system: LS1 strain (ΔadhE ΔldhA double mutant) cells; assay: Metabolic complementation (anaerobic growth recovery) of LS1/AL strain; type: cell-based, Escherichia coli
Protocol: (§1) The LS1 mutant strain and the parental BW25113 strain were transformed with the desired plasmid and overnight pre-cultures were grown aerobically in 15 mL Falcon tubes with M9 media (0.4% glucose). These pre-cultures were used to inoculate 10 mL Hungate tubes with M9 medium (0.4% glucose) supplemented with 100 μg/mL ampicillin, 1 mM IPTG and with or without the specific substrate of the dehydrogenase under anaerobic conditions at 37° C. Metabolic complementation was assessed by measuring the optical density at 600 nm every two hours during daytime.

[3] = system: AL cells; assay: 1H NMR analysis of fermentation broth of anaerobic cultures; type: cell-based, Escherichia coli; design: Substrate concentration: unit not given here
[4] = system: LS5 strain; assay: Metabolic complementation (anaerobic growth) of quadruple mutant; type: cell-based, Escherichia coli
Protocol: as §1
Since in the triple mutants the non-deleted transhydrogenase could still be supporting anaerobic growth under anaerobic fermentation conditions when complemented with an NADPH-dependent oxidoreductase by generating oxidized NAD, the inventors generated a quadruple mutant where adhE, ldhA, sthA and pntA genes were deleted (LS5 strain, FIG. 11).

[5] = system: triple mutants (adhE, ldhA and one transhydrogenase gene knocked out); assay: Metabolic complementation of triple mutants; type: cell-based, E. coli; conditions: any of the triple mutants
Source text: As LS1 (ΔadhE-ΔldhA double mutant) was able to grow when transformed with an NADPH-dependent oxidoreductase (wild type CBADH), the inventors generated two triple mutants where, in addition to adhE and ldhA, one transhydrogenase gene was deleted in each. Transhydrogenases catalyse the direct transfer of electrons from NADH to NADP+ and from NADPH to NAD+, in the following reaction: NADH+NADP^+=NAD^++NADPH. Without wishing to be bound to any particularly theory, the inventors hypothesized the activity of these transhydrogenases is what makes the system able to restore anaerobic growth when transformed with enzymes that generate NADP+. Two triple mutants, where one transhydrogenase gene was knocked out in addition to adhE and ldhA, were generated, since there are 2 transhydrogenase genes in E. coli: • sthA (soluble transhydrogenase) • pntA (transmembrane transhydrogenase).

[6] = Enzymatic activity assays with purified enzyme, reduction of acetone; type: biochemical
[7] = system: LS1 strain cells; assay: GC analysis of fermentation broth; type: cell-based, Escherichia coli; conditions: anaerobic, media supplemented with acetone
[8] = Enzymatic activity assays with purified enzyme, oxidation of isopropanol; type: biochemical
[9] = exogenous substrate 2-methyl-1-pyrroline
[10] = exogenous substrate 2-methyl-1-pyrroline, product 2-methylpyrrolidine
[11] = LS1, medium supplemented with acetoin
[12] = exogenous substrate acetoin, product 2,3-butanediol
[13] = exogenous substrate 2-nitrobenzoic acid
[14] = exogenous substrate 4-nitrobenzylic alcohol
[15] = exogenous substrate acetone, product isopropanol

B1: MsIRED-s: MsIRED variant with N32E, R33V, T34R and K37R, NADH-dependent (protein)
chain: MKPTLTVIGAGRMGSALIKAFLQSGYTTTVWEVRKARSEPLAKLGAHLADTVRDAVKRSDIIVVNVLDYDTSDQLLRQDEVTRELRGKLLVQLTSGSPALAREQETWARQHGIDYLDGAIMATPDFIGQAECALLYSGSAALFEKHRAVLNVLGGATSHVGEDVGHASALDSALLFQMWGTLFGTLQALAISRAEGIPLEKTTAFIKLTEPVTQGAVADVLTRVQQNRLTADAQTLASLEAHNVAFQHLLALCEERNIHRGVADAMYSVIREAVKAGHGKDDFAILTRFLK
modifications: variant of Myxococcus stipitatus imine reductase
notes: MsIRED variant with N32E, R33V, T34R and K37R, NADH-dependent
activity with NADPH [1]: no activity was detected
anaerobic growth compared with best variant of previous studies ([2]; media supplemented with 2-methylpyrroline): more efficiently
Acetate concentration [3, 9]: 15.9
Ethanol concentration [3, 9]: 0
Formate concentration [3, 9]: 12.8
Lactate concentration [3, 9]: 0
Substrate concentration [3, 9]: 0.8
Succinate concentration [3, 9]: 2
Product concentration [3, 10]: 13.4

B2: Myxococcus stipitatus imine reductase (protein)
chain: B1 chain with E32N, V33R, R34T, R37K
modifications: Myxococcus stipitatus imine reductase
Acetate concentration [3, 9]: 4.3
Ethanol concentration [3, 9]: 0
Formate concentration [3, 9]: 2.1
Lactate concentration [3, 9]: 0
Substrate concentration [3, 9]: 5.5
Succinate concentration [3, 9]: 1.2
Product concentration [3, 10]: 6.6

B3: pLS2: pUC19 with sADH NADH-dependent from Bacillus subtilis (bdhA), acetoin reductase (protein, UniProt O34788 1-346, looked up)
(R,R)-butanediol dehydrogenase: MKAARWHNQKDIRIEHIEEPKTEPGKVKIKVKWCGICGSDLHEYLGGPIFIPVDKPHPLTNETAPVTMGHEFSGEVVEVGEGVENYKVGDRVVVEPIFATHGHQGAYNLDEQMGFLGLAGGGGGFSEYVSVDEELLFKLPDELSYEQGALVEPSAVALYAVRSSKLKAGDKAAVFGCGPIGLLVIEALKAAGATDIYAVELSPERQQKAEELGAIIVDPSKTDDVVAEIAERTGGGVDVAFEVTGVPVVLRQAIQSTTIAGETVIVSIWEKGAEIHPNDIVIKERTVKGIIGYRDIFPAVLSLMKEGYFSADKLVTKKIVLDDLIEEGFGALIKEKSQVKILVRPN
modifications: expressed from pUC19 plasmid
notes: pUC19 with sADH NADH-dependent from Bacillus subtilis (bdhA), acetoin reductase
anaerobic growth recovery [2, 11]: growth recovery was achieved
Acetate concentration ([3]; exogenous substrate acetoin): 6.7
Ethanol concentration ([3]; exogenous substrate acetoin): 0
Formate concentration ([3]; exogenous substrate acetoin): 3.7
Lactate concentration ([3]; exogenous substrate acetoin): 0
Substrate concentration ([3]; exogenous substrate acetoin): 0
Succinate concentration ([3]; exogenous substrate acetoin): 0.5
Product concentration [3, 12]: 8.4

B4: pLS3: pUC19 with sADH NADH-dependent from Klebsiella pneumoniae (budC), acetoin reductase (protein, UniProt Q48436 1-256, looked up)
Diacetyl reductase …: MKKVALVTGAGQGIGKAIALRLVKDGFAVAIADYNDATAKAVASEINQAGGRAMAVKVDVSDRDQVFAAVEQARKTLGGFDVIVNNAGVAPSTPIESITPEIVDKVYNINVKGVIWGIQAAVEAFKKEGHGGKIINACSQAGHVGNPELAVYSSSKFAVRGLTQTAARDLAPLGITVNGYCPGIVKTPMWAEIDRQVSEAAGKPLGYGTAEFAKRITLGRLSEPEDVAACVSYLASPDSDYMTGQSLLIDGGMVFN
modifications: expressed from pUC19 plasmid
notes: pUC19 with sADH NADH-dependent from Klebsiella pneumoniae (budC), acetoin reductase
anaerobic growth recovery [2, 11]: growth recovery was achieved
Acetate concentration ([3]; exogenous substrate acetoin): 7.9
Ethanol concentration ([3]; exogenous substrate acetoin): 0
Formate concentration ([3]; exogenous substrate acetoin): 5
Lactate concentration ([3]; exogenous substrate acetoin): 0
Substrate concentration ([3]; exogenous substrate acetoin): 0.2
Succinate concentration ([3]; exogenous substrate acetoin): 0.7
Product concentration [3, 12]: 8.3

B5: nsfB nitroreductase from Enterobacter cloacae (protein, listed as Enterobacter cloacae)
chain: MDIISVALKRHSTKAFDASKKLTAEEAEKIKTLLQYSPSSTNSQPWHFIVASTEEGKARVAKSAAGTYVFNERKMLDASHVVVFCAKTAMDDAWLERVVDQEEADGRFNTPEAKAANHKGRTYFADMHRVDLKDDDQWMAKQVYLNVGNFLLGVGAMGLDAVPIEGFDAAILDEEFGLKEKGFTSLVVVPVGHHSVEDFNATLPKSRLPLSTIVTEC
Acetate concentration [3, 13]: 0.7
Ethanol concentration [3, 13]: 0
Formate concentration [3, 13]: 0.4
Lactate concentration [3, 13]: 0
Substrate concentration [3, 13]: 14.1
Succinate concentration [3, 13]: 0
Acetate concentration [3, 14]: 0.8
Ethanol concentration [3, 14]: 0
Formate concentration [3, 14]: 0.4
Lactate concentration [3, 14]: 0
Substrate concentration [3, 14]: 8.28
Succinate concentration [3, 14]: 0

B6: EntNFSB-s1: nitroreductase variant selected for 2-NBA (protein)
chain: B5 chain with S40A, T41I, F124A
modifications: amino acid variant of Enterobacter cloacae nitroreductase
notes: nitroreductase variant selected for 2-NBA
Acetate concentration [3, 13]: 4.4
Ethanol concentration [3, 13]: 0
Formate concentration [3, 13]: 2.9
Lactate concentration [3, 13]: 0
Substrate concentration [3, 13]: 12.4
Succinate concentration [3, 13]: 0.3

B7: EntNFSB-s2: nitroreductase variant identified for cells grown with 4-nitrobenzyl alcohol (protein)
chain: B5 chain with T41L, Y68L, F124L
modifications: no acid variant of Enterobacter cloacae nitroreductase
notes: nitroreductase variant identified for cells grown with 4-nitrobenzyl alcohol
Acetate concentration [3, 14]: 13.2
Ethanol concentration [3, 14]: 0
Formate concentration [3, 14]: 7.9
Lactate concentration [3, 14]: 0
Substrate concentration [3, 14]: 0
Succinate concentration [3, 14]: 1

B8: Clostridium beijerinckii alcohol dehydrogenase (protein, listed as Clostridium beijerinckii)
chain: MKGFAMLGINKLGWIEKERPVAGSYDAIVRPLAVSPCTSDIHTVFEGALGDRKNMILGHEAVGEVVEVGSEVKDFKPGDRVIVPCTTPDWRSLEVQAGFQQHSNGMLAGWKFSNFKDGVFGEYFHVNDADMNLAILPKDMPLENAVMITDMMTTGFHGAELADIQMGSSVVVIGIGAVGLMGIAGAKLRGAGRIIGVGSRPICVEAAKFYGATDILNYKNGHIVDQVMKLTNGKGVDRVIMAGGGSETLSQAVSMVKPGGIISNINYHGSGDALLIPRVEWGCGMAHKTIKGGLCPGGRLRAEMLRDMVVYNRVDLSKLVTHVYHGFDHIEEALLLMKDKPKDLIKAVVIL
anaerobic growth ([4]; media supplemented with acetone or not): anaerobic growth is not restored
time after which growth recovery was observed ([2]; LS1 cells cultured anaerobically, media supplemented with acetone): 55 h
Acetate concentration ([3]; exogenous substrate acetone): 8.1
Ethanol concentration ([3]; exogenous substrate acetone): 0
Formate concentration ([3]; exogenous substrate acetone): 5.8
Lactate concentration ([3]; exogenous substrate acetone): 0
Substrate concentration ([3]; exogenous substrate acetone): 0.1
Succinate concentration ([3]; exogenous substrate acetone): 1.1
Product concentration [3, 15]: 10.8
anaerobic growth [5]: still able to grow anaerobically

B9: CBADH-s: CBADH variant with substitutions G198D, S199Y and Y218P, uses NADH instead of NADPH (protein)
chain: B8 chain with G198D, S199Y, Y218P
modifications: amino acid variant of CBADH
notes: CBADH variant with substitutions G198D, S199Y and Y218P, uses NADH instead of NADPH
increase in activity compared to the wild type ([6]; reduction of acetone to isopropanol, NADH as the cofactor, purified enzyme): 4.6 fold
activity with NADP(H) as the cofactor ([6]; reduction reaction): no significant activity
anaerobic growth ([4]; media supplemented with acetone): anaerobic growth is restored
anaerobic growth recovery ([2]; LS1, media supplemented with acetone): allowed growth recovery
isopropanol in fermentation broth compared with pLS6 [7]: much higher levels
Acetate concentration ([3]; exogenous substrate acetone): 13
Ethanol concentration ([3]; exogenous substrate acetone): 0
Formate concentration ([3]; exogenous substrate acetone): 9.9
Lactate concentration ([3]; exogenous substrate acetone): 0
Substrate concentration ([3]; exogenous substrate acetone): 0.5
Succinate concentration ([3]; exogenous substrate acetone): 1.1
Product concentration [3, 15]: 12.7
increase in activity compared to the wild type ([8]; oxidation of isopropanol to acetone, NAD+ as the cofactor, purified enzyme): io
activity with NADP(H) as the cofactor ([8]; oxidation reaction): no significant activity
